Experimental data reported in US5674833.

Each substance was assayed against Alcalase® (Bacillus) (UniProt P00780) (assay: titration of Alcalase with inhibitor, residual activity on synthetic peptide substrates, non-linear regression; 0.1M Tris-HCl pH 8.6, 25 C).

Substance	Kd [nM]
Wild-type barley subtilisin inhibitor CI-2	0.004
CI-2(M59P)	5
CI-2(V57E)	0.1
